How the values were obtained:
[1] = substrate: CCCC(=O)SCCNC(=O)CCNC(=O)[C@H](O)C(C)(C)COP(=O)(O)OP(=O)(O)OC[C@H]1O[C@@H](n2cnc3c(N)ncnc32)[C@H](O)[C@@H]1OP(=O)(O)O; assay: acetyl-CoA formation, citrate synthase/DTNB A412, secondary plots; type: biochemical, Porphyromonas gingivalis; settings: co-substrate sodium acetate, 40 mM potassium phosphate pH 8.0, ternary-complex mechanism
Description: (§1) acetyl-CoA formation, citrate synthase/DTNB A412, secondary plots on PGN_0725

[2] = substrate: CCC(=O)SCCNC(=O)CCNC(=O)[C@H](O)C(C)(C)COP(=O)(O)OP(=O)(O)OC[C@H]1O[C@@H](n2cnc3c(N)ncnc32)[C@H](O)[C@@H]1OP(=O)(O)O; assay: as above; type: biochemical, Porphyromonas gingivalis; settings: co-substrate sodium acetate, 40 mM potassium phosphate pH 8.0, ternary-complex mechanism
Description: as §1

[3] = substrate: CC(=O)O; assay: purified protein; settings: co-substrate butyryl-CoA, 40 mM potassium phosphate pH 8.0, ternary-complex mechanism
[4] = substrate: CCCC(=O)SCCNC(=O)CCNC(=O)[C@H](O)C(C)(C)COP(=O)(O)OP(=O)(O)OC[C@H]1O[C@@H](n2cnc3c(N)ncnc32)[C@H](O)[C@@H]1OP(=O)(O)O; assay: acetyl-CoA formation, citrate synthase/DTNB A412, secondary plots; type: biochemical, Porphyromonas gingivalis; settings: co-substrate sodium acetate, 40 mM potassium phosphate pH 8.0, ternary-complex mechanism; remark: listed apart in the source
Description: (§2) acetyl-CoA formation, citrate synthase/DTNB A412, secondary plots on PGN_1888

[5] = substrate: CCC(=O)SCCNC(=O)CCNC(=O)[C@H](O)C(C)(C)COP(=O)(O)OP(=O)(O)OC[C@H]1O[C@@H](n2cnc3c(N)ncnc32)[C@H](O)[C@@H]1OP(=O)(O)O; assay: as above; type: biochemical, Porphyromonas gingivalis; settings: co-substrate sodium acetate, 40 mM potassium phosphate pH 8.0, ternary-complex mechanism; remark: listed apart in the source
Description: as §2

[6] = substrate: CCCC(=O)SCCNC(=O)CCNC(=O)[C@H](O)C(C)(C)COP(=O)(O)OP(=O)(O)OC[C@H]1O[C@@H](n2cnc3c(N)ncnc32)[C@H](O)[C@@H]1OP(=O)(O)O; assay: as above; type: biochemical, Porphyromonas gingivalis; settings: co-substrate sodium acetate, 40 mM potassium phosphate pH 8.0, ternary-complex mechanism; remark: listed apart in the source
Description: acetyl-CoA formation, citrate synthase/DTNB A412, secondary plots on PGN_1341

Row | Protein | Km [1] [µM] | kcat [1] [s⁻¹] | Km [2] [µM] | kcat [2] [s⁻¹] | Km [3] [µM] | kcat [3] [s⁻¹] | Km [4] [µM] | kcat [4] [s⁻¹] | Km [5] [µM] | kcat [5] [s⁻¹] | Km [6] [µM] | kcat [6] [s⁻¹]
1 | PGN_0725 (Porphyromonas gingivalis ATCC 33277) (protein, recombinant full-length, pGEX-6P-1 (GST vector) in E. coli; 431 aa) MKDVLAEYASRIVSAEEAVKHIKNGERVALSHAAGVPQSCVDALVQQADLFQNVEIYHMLCLGEGKYMAPEMAPHFRHITNFVGGNSRKAVEENRADFIPVFFYEVPSMIRKDILHIDVAIVQLSMPDENGYCSFGVSCDYSKPAAESAHLVIGEINRQMPYVHGDNLIHISKLDYIVMADYPIYSLAKPKIGEVEEAIGRNCAELIEDGATLQLGIGAIPDAALLFLKDKKDLGIHTEMFSDGVVELVRSGVITGKKKTLHPGKMVATFLMGSEDVYHFIDKNPDVELYPVDYVNDPRVIAQNDNMVSINSCIEIDLMGQVVSECIGSKQFSGTGGQVDYVRGASWSKNGKSIMAIPSTAKNGTASRIVPIIAEGAAVTTLRNEVDYVVTEYGIAQLKGKSLRQRAEALIAIAHPDFREELTEHLRKRFG | 520 ± 10 | 560 ± 4.1 | 108 ± 47 | 533 ± 31 | 16000 ± 1800 | 560 ± 4.1 | – | – | – | – | – | –
2 | PGN_1888 (Porphyromonas gingivalis ATCC 33277) (protein, recombinant full-length, pGEX-6P-1 (GST vector) in E. coli; 431 aa) MQWQELYRQRVCSADEAVVDSLKPGTKVVFGHAAAAPVRFSQAMYRQRERLENITVFHMLYFGDAPHLAPEMRSHVHPTLNFLEGNSRPASRDRRVDFIPCHFHEVPELFRQGFFPLDVAVVQVSTPNEEGYCSFGVSCDYTKAAAECAPVVVAEVNKQMPFIGGENLIHISNLTHIIEVDEPIAEVLPPAISDLELRIGQNCASLIKDGDTLQLGIGGIPDAVLRALEGHKDLGIHTEMFTDGVMRMIRKGIINGKKKTLHPEKVVTSLIFGSKELYDFVNNNPVIECYPVDYINNPDVIGKNDRMVSINSCLEMDLMGQAASESIGYEQFSGSGGQVDFLRGAKRSKGGISIMAFPSTAKKGTESRIVPILKEGACVTTGRNEVDYVVTEYGVARLRGATLRQRAEALTAIAHPDFRPALEEEIRRRFE | – | – | – | – | 33000 ± 5300 | 254 ± 10 | 920 ± 70 | 254 ± 10 | 23 ± 4.4 | 1374 ± 477 | – | –
3 | PGN_1341 (Porphyromonas gingivalis ATCC 33277) (protein, recombinant full-length, pGEX-6P-1 (GST vector) in E. coli; 498 aa) MALRFITAEEAAEFVHHNDNVGFSGFTPAGNPKVVPAAIAKRAIAEHEKGNPFKIGMFTGASTGARLDGVLAQADAVKFRTPYQSNKDLRNLINNGSTSYFDLHLSTLAQDLRYGFYGKVDVAIIEVADVTEDGKILPTTGVGILPTICRLADRIIVELNDKHPKEIMGMHDLCEPLDPPARRELPVYTPSDRIGKPYVQVDPAKIVGVVRTSEPNDESDFAPLDPVTQAIGDNVAAFLVSEMKAGRIPKDFLPLQSGVGNVANAVLGALGDNPDIPAFNMYTEVIQDAVIALMKKGRIKFASGCSLSVSRSVIQDIYANLDFFKDKILLRPQEYSNNPEIVRRLGVITINTALEADIFGNINSTHVSGTRMMNGIGGSGDFTRNSYVSIFTTPSVMKDGKISSFVPMVAHHDHSEHSVKVIISEWGVADLRGKNPRERAHEIIDKCVHPDYRPLLRQYLELGVKGQTPQNLDCCFAFHQELAKSGDMRNVRWEDYMK | – | – | – | – | 26000 ± 2800 | 24 ± 0.3 | – | – | – | – | 610 ± 40 | 24 ± 0.3

From PMC4949257, “Three CoA Transferases Involved in the Production of Short Chain Fatty Acids in Porphyromonas gingivalis” (Frontiers in Microbiology, 2016)
